Test results: the supplement of paper PMC12764529
± gives the half width of the 95% confidence interval.

Assays:
[1] = folding stability dG unfold (combined trypsin and chymotrypsin); higher = more stable
Summary of the method: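 Unfolding free energy was derived, per protease or combined, against a sequence-predicted unfolded-state K50 and a shared folded-state K50, starting from K50 inferred by Bayesian fitting of sequencing counts. Digestion with trypsin and chymotrypsin was carried out on designed mini-proteins under 80 residues without cysteine in a PA-tagged cDNA display construct. Only designs with AlphaFold2 dimer inter-PAE above 15 were kept.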

[2] = folding stability dG unfold from chymotrypsin proteolysis; higher = more stable
Method: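 Folding stability of de novo designed mini-proteins (<80 aa, no Cys; designed by TrROS, TrMRF, ProteinMPNN and the joint model) was measured by cDNA display proteolysis with trypsin and chymotrypsin. Each protease was used at 11 concentrations in a threefold dilution series plus a no-protease condition. K50 was inferred by Bayesian fitting of sequencing counts, and dG unfold was derived against a sequence-predicted unfolded-state K50 (Tsuboyama et al. method). Sequences shown include variable-length N-terminal GS-type padding (SAGGSAGG...) inside a display construct carrying a PA tag. Rows were kept only if the AF2 dimer inter-PAE was >15, to exclude likely homo-oligomers.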

Sequence | folding stability dG unfold [1] [kcal/mol] | folding stability dG unfold [2] [kcal/mol]
SAGGSAGGSAGGVLYLPDDVKVELVEVTPDGVAKLRVYVYEKDDGDPLVPVPGYDPGAGSAGGSAGGSAGGS [r10_934_TrMRF] | -0.777 ± 0.48 | 0.126 ± 0.36
PEISELTSEESEDGTTFTETKVTLKDPNSNKKINATRKVETEVVGDSTTVTSTLTLPKDKKTINESYTISPS [r1_374_JUSTAS] | < -1 | -0.591 ± 0.61
SAGGSAGGSAGKKFKITEIHPGDNHHHITVKWKRDGKKRERTVMVPSGPEMAKKADIIIISAGGSAGGSAGG [r11_921_TrROS] | < -1 | -0.547 ± 0.48
SADKVIIPFDSPEEIKGIIKEARKAGIPGKEIVIWSEDDWMYKIEVDPNKGNVEIEPVMPPEDLNDEMPSAG [r14_913_TrROS] | 0.0128 ± 0.12 | 0.629 ± 0.048
SAGGSAGGSAGGPVFDMSNFEEVKEAAEKAGIDVVEEDPEKNTIYVDPSKPELIKEAIQKSAGGSAGGSAGG [r7_285_JUSTAS] | 0.205 ± 0.4 | 0.874 ± 0.14
SAGGMKVEDFVLELPTPEGKKILVEAVKVTTDPEAGLISVELKTPDKKEKLTLSPDEYVRGPSPEEFLKSAG [r5_15_JUSTAS] | -0.562 ± 0.33 | -0.376 ± 0.19
SAGGSAGGSAGGSATVTTTTTSGATITPPALTELPSGYVAVVTPTGDTLNVVIAPKALLSAGGSAGGSAGGS [r4_279_JUSTAS] | -0.966 ± 0.49 | 0.214 ± 0.26
SAGGSAGGMSLEEAVEEAAAAVSPDETAEVVLTVEVSEPLTFPEPPDRLVTRPRTVRVRVRAPASAGGSAGG [r6_543_JUSTAS] | 0.319 ± 0.19 | 0.488 ± 0.11
SAGGSAGGSAMIETSVSLDPKNGLRKVTQNVTPEEYLKLTGGPPIPKENKTTVTLTKTLPVPSAGGSAGGSA [r18_327_JUSTAS] | -0.726 ± 0.16 | -0.265 ± 0.087
SAGGSAGGSAGPWVPIAPGPNGMWIWAEPDPDKFTIRMFPMSPDGKIPDVQEHEIPPEDFSAGGSAGGSAGG [r11_88_TrROS] | -0.216 ± 0.17 | 0.156 ± 0.22
SAGGSAGGSAGMLTTKTITLPHAPDDPAAFRAAVLKGLPPELPVLSVDYDPATGTGTVVASAGGSAGGSAGG [r11_698_JUSTAS] | < -1 | 0.0666 ± 0.31
SAGGYPAEIEASNVKPEELKKAIEDAPWAKELDVEVEDSSPDGSVKAKFKANSKAEVKRFEKAVKDAFSAGG [r13_580_TrMRF] | < -1 | -0.448 ± 0.34
SAGGSAGGSAGGPMYTVHTETFTTLEPGAGKRIVTTRTTNPATGATATTTTVIPLEPEALSAGGSAGGSAGG [r17_153_JUSTAS] | < -1 | -0.555 ± 0.39
SAGGSAGGSAGGSVTIPVPENVKVRIYPPNGGRREVTAAAGATITVPAPGGEEVRIEVETSAGGSAGGSAGG [r7_357_TrMRF] | 0.193 ± 0.1 | 0.715 ± 0.021
SAGGSAGGSPKPKRRTIEFPLKVPPGMSPEDVADELKQQPGFEIDEIDEVDPDEGWVKISVELSAGGSAGGS [r12_712_TrROS] | < -1 | -0.377 ± 0.13
SAGGSAGGSGMNVKTIKIYSPEGGETTVPVTGTTVTIGGETVTVTSDVVVPVPPTIKSIEVVGSAGGSAGGS [r12_779_JUSTAS] | 0.277 ± 0.082 | 0.769 ± 0.02
SAGGSAGGSAKAKVLEVEEKPVGGVNRFKIEVPLENGEPQKFYVLVEVPEDGDEKFAVKPGSAGGSAGGSAG [r3_94_TrMRF] | -0.319 ± 0.18 | 0.1 ± 0.16
SAGGSAGPMPSTVTTLATAPLPDGTLVVTTLERTPDSVTRTTTTYKPADGSPLGTASTTYPAPAALSAGGSA [r15_716_JUSTAS] | -0.0279 ± 0.14 | 0.808 ± 0.15
SAGGSAGGSAGGSGPDETILVTRKVTTTEPVLLEHDGTPRVRERTVTRTSSTTERVDLSSAGGSAGGSAGGS [r4_271_JUSTAS] | -0.835 ± 0.32 | -0.146 ± 0.21
SAGGSAGGSAGGWIVRIEHGGKERMFQFDSPEEIKDQIRPMFPNGKKVKVEVMPPDDLKSAGGSAGGSAGGS [r10_1167_TrROS] | -0.483 ± 0.21 | -0.0912 ± 0.16
SAGGSTVTFSSEEEIAKLKPVLKKGNPTTLYLNEVRERLLPNGEPVLVPRDVTRTITLVNGKLTESETSAGG [r13_835_JUSTAS] | < -1 | -0.685 ± 0.18
KKRTIEIPFPANGYKVKIEVPEDQGKPIDEEEIQKLLREWHPDMPADDMPAKEIAKYLADEPGIKEVEIERS [r1_463_TrROS] | 0.132 ± 0.28 | 0.479 ± 0.25
SAGGSAGGSAGGEARDNGVPTIEIPIPPEFKKGMPAEQMVDQLAKQLPPGVKDIHIEPPPSAGGSAGGSAGG [r7_487_TrROS] | 0.376 ± 0.13 | 0.744 ± 0.035
SSTTTTTTDPSGYTYSTTVTTHPDSTTTTTGRVTVEKVGDRPVARTTTTTTTVSPGGATTTTTSTTTTLPSA [r9_69_JUSTAS] | 0.0549 ± 0.082 | 0.589 ± 0.1

Sequence | folding stability dG unfold [1] [kcal/mol] | folding stability dG unfold [2] [kcal/mol]
SSVTLLVPVEVTLPTPEGKGPSVTRFVPVPVPEEELRERLIEELREELKKKGEPDVTEEELKDPEVLEELSA [r9_263_JUSTAS] | -0.0887 ± 0.18 | 0.51 ± 0.046
SAGGSAGGLLPDQRVRLRLTRTSPDGEPEEATVELTNIPSSITPSSTLTFPGEGDTWEVEEITTSAGGSAGG [r6_560_TrMRF] | < -1 | -0.184 ± 0.21
SAGGSPAPVRRTVTQLLKVGDKLETRVVEEVVWVPEPPPPPVIPIPEDRGLNEEPVPGTRELTFDAGSAGGS [r8_28_JUSTAS] | -0.195 ± 0.37 | 0.268 ± 0.19
SAGGSASVSVTELSPEERAALEAAGVEVPDDRPRVVETRTVTPAGGAVVTVRVLPEPPLSPEELAASAGGSA [r15_322_JUSTAS] | -0.127 ± 0.066 | 0.311 ± 0.013
SAGGDSLPENVIKIELEFEIETEDGSKIELKLEIYISPDNKIYVKAEATIILPDKPIKIEIDFEFDVSAGGS [r16_563_TrMRF] | 3.59 ± 0.88 | 3.35 ± 0.27
SAGGPIKRDPDGKIEIHYNEDNGRWHVKIRDPGKPKKEREFKSPDDANEFAKSFANDGWKIDKVEPYPSAGG [r13_727_TrROS] | 0.834 ± 0.32 | 1.08 ± 0.25
SAGMTHVLPVPELSPEEVRALAEALPEGEELVLLVPGPELLAELRAAGFPVDPARFRLATPEERAELLASAG [r5_354_JUSTAS] | -0.189 ± 0.12 | 0.857 ± 0.13
SAGGSAGGSGMERVEAVREALVPGDPDAVPAPITYDPQTGKLTYSVSDPRVAAALAADPLVSLSAGGSAGGS [r12_623_JUSTAS] | -0.309 ± 0.19 | 0.333 ± 0.11
SAGMKPGETRHIPIRPGMPPEEFIEEIEAEGPVKIWFPGRKREIDSPDDIEDNFRNFPEPMPIEVKVPSAGG [r19_95_TrROS] | 0.157 ± 0.28 | 0.695 ± 0.12
SAGGSASTREVGDKTLTVTPIKLPNGTNLVLLRTFDPATGKVPVLAFPPEEGNPLGESVLPASELLSAGGSA [r15_671_JUSTAS] | < -1 | -0.654 ± 0.14
SAGGSAGGSAGGSMKSVPVITTTTTVLPNGTTVTTTTVNNVTSSGTTSSTTTTVTPSLLSAGGSAGGSAGGS [r4_486_JUSTAS] | -0.836 ± 0.22 | -0.571 ± 0.15
SAGGSSSVTEISISRSRQRPDASGRWVTEPVLPPGVYAPTTVVHENGVLTFNTVYDGKPVTETIPLSSAGGS [r16_500_JUSTAS] | -0.0547 ± 0.12 | 0.47 ± 0.13
SAGGSMPPVVEPATLTLGNGPATQLQRYPGVELVVYRRPPENTILFLSSSGQVLEERKVSPETPVSELSAGG [r13_507_JUSTAS] | < -1 | -0.318 ± 0.31
SAGGSAGGSAGGMVRTLDLPNLSEEEIEEIIKKNPNEVYEITFRPPNGPEVTKTIPTHHSAGGSAGGSAGGS [r10_408_JUSTAS] | 0.524 ± 0.18 | 0.84 ± 0.081
SAGGSIPAEEIADKLRKEPGIPEDDVEVNVERRPGQVTIDVKMDDPDHPQHRRMKKRAQDALQKLLSAGGSA [r2_3_TrROS] | -0.133 ± 0.3 | 0.186 ± 0.31
SAGGSAGGSAGGSPILIPRPDDYVLVVRIEEPRPLPDGDLAPPRIDVRLMPREEVERLLSAGGSAGGSAGGS [r4_238_TrMRF] | 0.378 ± 0.12 | 0.992 ± 0.08
SAGGSAGGTREIELPGMKISVQKDPNQGKKKIEVEFPNGEEFTMDPGKPPDDLPPPFRRALKEISAGGSAGG [r6_749_TrROS] | < -1 | -0.176 ± 0.31
MTPEAFAGPGGRPLAELFLARFRRPVLDPETGLPTWEPAGVLVFPRETEPEELAAIFEALPELEEIEIAPAS [r1_132_TrMRF] | -0.149 ± 0.22 | 0.149 ± 0.22
SAGGSAGGSEEIYIKVTVEHPNGEKRTHEIERIRDKDGLPIKQIAKELAQEPNVRDVDVEIVKSAGGSAGGS [r12_199_TrROS] | -0.56 ± 0.15 | -0.316 ± 0.072
SAGGSAGGSAGMKVKSIKKLSKDPKNGKETFEITIPENGEKVTIETEPGKFEEVKKKLLKSAGGSAGGSAGG [r17_111_JUSTAS] | -0.0508 ± 0.13 | 0.359 ± 0.089
SAGGSAGGSPPENMKIKIYNPNGEEQTIPVEGVKIRFNGDTHEIPPGDSIPIPPGIDAIEIEKSAGGSAGGS [r12_779_TrROS] | 0.0926 ± 0.22 | 0.512 ± 0.084
VNPRTLTYDPVTNRIDAATPDGTPVTVTAGSSGYTATVTDPATGAPTVVPLTEAELAALEADPAFPLATSNS [r1_18_JUSTAS] | -0.115 ± 0.056 | 0.653 ± 0.057
SAGGSAGGSAGGKKININVPAEEMTEEEIKKLIKNLPPDMPIEIEIQPVPPPPPPPPGDKSAGGSAGGSAGG [r7_979_TrROS] | < -1 | -0.851 ± 0.63
